The series can be described thus: yeast display, Sf9 membrane polyspecificity reagent, FACS + sequencing; frameworks hold sequencing errors. The gist of the method: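 Nanobodies from a synthetic yeast display library (Saccharomyces cerevisiae BJ5465), induced 36–48 hours with galactose, were stained 1 hour at 4 °C with 10% biotinylated, detergent-solubilized Sf9 membrane reagent, enriched on streptavidin microbeads, then FACS-sorted. Anti-HA (expression) and streptavidin (reagent binding) fluorescence set low and high (top ~1%) gates. Polyreactivity labels come from the gate of origin. Genes were colony-PCR amplified, MiSeq 2 × 250 sequenced and filtered by CDR length.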
Take “QVQLVESGGGLVQAGGSLRLSCAGYGLTFEYYTMGWYRQAPGKGRELVAAITSSGGSTYYADSVKGRFTISRDNSKNTFYLQMISLKPEDTAVYYCNAYLTYEFPSYDYWGQGTQVTVSS”: the “polyreactivity (PSR sort gate)” value is listed as “low polyreactivity”.
For “QVQLVESGGGLVQAGGSLRLSCAPCGSIFPAYTMGWYRRAPGKERELVAAISRRGGSTYYADCVKGRFTISRDNEKNTVYLQMNRLKPEDTAVYDCAKVPDYRFEYWGQGSQVTVSS”, the “polyreactivity (PSR sort gate)” value is given as “high polyreactivity”.
For the sequence “QVQLVESGGGLVQAGGSLRLSCAPSARTFVYNAMGWYRQAPGKERELVAAIDGGGDRTYYADSVKGRFTISRDNAKYTVYIQMYSLKPEDTAVYYCARDPGDTYYYSYPEGDYWGQGTQVTVSS”, the “polyreactivity (PSR sort gate)” value is reported as “low polyreactivity”.
As for “QVQLVESGGGLVQAGGSLRLSCAPSGFIFVSNAMVWYRQEPGKERELFADITSRGDSTYYADSVKGRFTISRDNAKNTVYLQMNSLKPEDTAVYYCAVDQLYFPWSFSWYGYWGQGTQVTVSS”, the “polyreactivity (PSR sort gate)” value is on record as “low polyreactivity”.
Consider “QVQLVESGGGLVQAGGSLRLSCAPSGFIITYFGMGWYRQAPGKERELVAAISSRGGSTYYADSVKGRFTISRDTAKNTVYLQMNSLKPEDTAVYYFNTDSYRWTFSNRRYDYWGQGTQVTVSS”, for which the “polyreactivity (PSR sort gate)” value is given as “high polyreactivity”.
For “QVQLVESGGGLVQAGGSLRLSCAPSGFSIIGNAMGWYRQAPGKERELVAAISRRGGSTYYADSVKGRFTISRDNAKNTVYLQLNSLKPEDTAVYYCATDPGARVHYPTGDYWGQGTQVTVSS”, the “polyreactivity (PSR sort gate)” value is “high polyreactivity”.
As for “QVQLVESGGGLVQAGGSLRLSCAPSGFTFRYYAMGWYRQAPGKERELVAAISWSVGSTYYADSVKGRFTISRDNAKNTVYLQMNSLKPEDTAVYYCNAAWPGYISNRLGYDYWGQGTQVTVSS”, the entry is “high polyreactivity”; as for “QVQLVESGGGLVQAGGSLRLSCAPSGFTFVFYAMGWYRQAPGKERELVAAISSRGGSTYYADSVKGRFTISRDNAKNTVYLQMNSLKPEDTAVYYCNVVSTYWTTYEEYYWGQGTQVTVSS”, “high polyreactivity”.
As to “QVQLVESGGGLVQAGGSLRLSCAPSGFTFVYYAMGWYRQAPGKERELVASISGGGRTYYADSVKGRFTISRDNAKNTVYLQMNSLKPEDTAVYYCAAEQYIRPYYRWVWVSYGYWGQGSQVTVSS”, the “polyreactivity (PSR sort gate)” value is “high polyreactivity”.
Consider “QVQLVESGGGLVQAGGSLRLSCAPSGFTFYPYAMGWSRQAPGKERELVAAIRYSGGSTYYADSVKGRFTISRDNAKNTVYLQMNSLKPEATAVYYCAADGSNPWYRNSWSRYRFGYWGQGTQVTVSS”, for which the “polyreactivity (PSR sort gate)” value was “high polyreactivity”.
With “QVQLVESGGGLVQAGGSLRLSCAPSGGIFGRNAMGWYRQAPGKESELVAGITNGGSTTYADSVKGRFTISRDNAKNTVYLQMNSLKPEDTAVYYCAVQLYRRWPYYQTHGYDYWGQGTQVTVTS”, the “polyreactivity (PSR sort gate)” value is given as “low polyreactivity”.
On to “QVQLVESGGGLVQAGGSLRLSCAPSGGTFLSNVMVWYRQAPGKERELVAAISSRGGSTYFADSVKGRFTISRDNAKNNVYFQMNSLKPVDTAVYYCNVRAAHYKDRQYDYWGQGTQGTVSS”, for which the “polyreactivity (PSR sort gate)” value was “high polyreactivity”.
“QVQLVESGGGLVQAGGSLRLSCAPSGIIFPEYDMGWYRQPPGKERELVAAITKSDGRTYYADSVKGRFTISRDNAKNSVYLQMNSLKPEDTAVYYCNADPSVVAYVGFVSWGQGTQVTLSS”: the “polyreactivity (PSR sort gate)” value is “low polyreactivity”.
Then “QVQLVESGGGLVQAGGSLRLSCAPSGITFQRYVMGWYRQAPGKERELVAAISFSGSSTYYADSVKGRFTISRDNAKNTVYLQMNSLKPEDTAVYYCAADGSVPKYVPYPRYYGYGYWGQGSQVTVSS”, with “high polyreactivity”.
As for “QVQLVESGGGLVQAGGSLRLSCAPSGITFRYYAMGWYRQAPGKERELVAAITRSGSTTYADSVKGRFTISRDNAKNTVYLQMNSLKPEVTAVYYCAVDYYYLTGGVDYWGQGTQVTVSS”, the “polyreactivity (PSR sort gate)” value is “low polyreactivity”.
Then “QVQLVESGGGLVQAGGSLRLSCAPSGLTIGHYAMGWYRQAPGKERELVAAISSGGSTYYADSVKGRFTISRDNAKNTVYLQMNSLKPEDTAVYYCAAVTVGTAYYARTFYYWGQGTQVTVSS”, with “high polyreactivity”; and “QVQLVESGGGLVQAGGSLRLSCAPSGNIFYINTMGWYRPAPGKERELVAAIDASDGSTYYADSVKGRFTISRDNAKNTVYLQMNSLKPEDTAVYYCATRRGYDSVYYLYTLWYYYWGQGTQVTVSS”, with “low polyreactivity”.
As for “QVQLVESGGGLVQAGGSLRLSCAPSGNTFWDNAMGWYRQAPGKERELVAAIRWSTGSTHYADSVKGRFTISRDNAKNTVYLQMNSVKPEDTAVYYCDATDYYYYRDKYYGYDYWGQGNQVTVSS”, the entry is “low polyreactivity”; as for “QVQLVESGGGLVQAGGSLRLSCAPSGRIFAGYTMGWYRQAPGKERELVAAISWSGGRTYYADSVKGRFTISRDNAKNTVYLQMNSLKPEDTAVYYCAKDGRYYSHYNYWGQGTQVTVSS”, “high polyreactivity”.
As to “QVQLVESGGGLVQAGGSLRLSCAPSGRIFDYYAMGWYRQAPGKESELVAAISGSGGSTYYADSVKGRFTISRDNAKNTVYLQMNSLKPEHTAVYYCAYGYLYCYDYWGQGTQVTVSS”, the “polyreactivity (PSR sort gate)” value is “low polyreactivity”.
With “QVQLVESGGGLVQAGGSLRLSCAPSGRIFGTNDMGWYRQAPGKERELVADITSGGSTNYADSVKGSFTISRDNAMNTVYLPMNSLKPEDSAVYYCNARHHNKVARFDYWGQGTQVTVSS”, the “polyreactivity (PSR sort gate)” value is on record as “low polyreactivity”.
As to “QVQLVESGGGLVQAGGSLRLSCAPSGRIFPYYAMGRYRQAPGKERELVATITASSGSTYYADSVKGRFTISRDNAKNTVYLQMNSLKPEDTAVYYCAAGFVYRPGSYIRFDYWGQGTQVTVSS”, the “polyreactivity (PSR sort gate)” value is recorded as “high polyreactivity”.
As to “QVQLVESGGGLVQAGGSLRLSCAPSGRIFQYNAMGWYRQAPGKERELGAAISNSTTRTYYADSVKGRFTISRDNAKNTVYLQMNSLKPEDTGVYYCAARGYFWSSYKYDYWVQGTQVTVSS”, the “polyreactivity (PSR sort gate)” value was “high polyreactivity”.
For the sequence “QVQLVESGGGLVQAGGSLRLSCAPSGRIFWYNAMGWYRQAPGKERELVAGISSSGTRTYYADSVKGRFTISRDNAKNTVYLQMNSLKPEDTAVYYCAAGYDLSYYWYDYWGQGTQVTVSS”, the “polyreactivity (PSR sort gate)” value is listed as “low polyreactivity”.
For the sequence “QVQLVESGGGLVQAGGSLRLSCAPSGRIIGTNAMRWYIQAPRKERELVAAITWSGGSTYYADSVKGRFTISRDNAKNTVFLQMISLKPEDTAVYYCAKDYGYGPRFYYWGQGTQLTVSS”, the “polyreactivity (PSR sort gate)” value is “high polyreactivity”.
“QVQLVESGGGLVQAGGSLRLSCAPSGRIIRKNAMGWSRQAPGKERELVAAITSVGSTYYADSVKGRFTISRDNAMNTVYLQMNSLKPEDTAVYYCNALQWSYNRGGYWGQGTQVTVSS”: the “polyreactivity (PSR sort gate)” value is recorded as “high polyreactivity”.
On to “QVQLVESGGGLVQAGGSLRLSCAPSGRTFNDYAMGWYRQAPGKESELVAAIDSDGDTNYADSVKGRFTISRDNAKNTVYLQMNSLKPEDTAVYYCNAVRLVVQEWYYYFTFDYWGQGTQVTVSS”, for which the “polyreactivity (PSR sort gate)” value was “low polyreactivity”.
Consider “QVQLVESGGGLVQAGGSLRLSCAPSGRTFNPYALGWYRPAPGKEREFVYADSVKGRFTISRDNAKNTVYLQMNSLKPEDTAVYYCAADVYPDTLHPYNYDYWGQGTQVTLSS”, for which the “polyreactivity (PSR sort gate)” value is on record as “low polyreactivity”.
Turning to “QVQLVESGGGLVQAGGSLRLSCAPSGRTFQLYAMGWSRQAPGKERELVAGITITGGSTYYADSVKGRFTISRDNAKNTVYLLMNSLKPEDTAVYYCNKPRFSERYGMGYWGQGTQVTVSS”, the “polyreactivity (PSR sort gate)” value is given as “low polyreactivity”.
For “QVQLVESGGGLVQAGGSLRLSCAPSGRTFRRYAMGWYRQAPGKEMEFVAAISRRTASTYYADSVKGRFTISRDNAKNTDYLQMNSLKPEDTAVYYCATKSGYSVGNYRYGYWVQGTQVTVSS”, the “polyreactivity (PSR sort gate)” value is “low polyreactivity”.
Take “QVQLVESGGGLVQAGGSLRLSCAPSGRTFYYYAMGWYRQAPGKERELVAAISRGSTYYADSVKGRFTISRDNAKNTVYLQMNSLKPEDTAVYYCAARYHNYWNRYIYDYWGQGTQVTVSS”: the “polyreactivity (PSR sort gate)” value is “high polyreactivity”.
On to “QVQLVESGGGLVQAGGSLRLSCAPSGSIFLHYAMGRYRQAPGKERDLVAAISRSGGRTYYADSVKGRFTISRDNAKNTVYLQMNSLKPEDTAVYYCAARVPRYRKDSVWAYYYWGQGTQVTVSS”, for which the “polyreactivity (PSR sort gate)” value is recorded as “high polyreactivity”.
On to “QVQLVESGGGLVQAGGSLRLSCAPSGSIFVHNAMGWYRQAPGKERELVAALDGGGGTYYADSVKGRFTISRDNAKNTVYLQMNSLKPEDTAVYYCAARYFHHYWGDLEVEFDYWGQGTQVTVSS”, for which the “polyreactivity (PSR sort gate)” value is listed as “low polyreactivity”.
Regarding “QVQLVESGGGLVQAGGSLRLSCAPSGSILRYYAMGWYRQAPGKEREFVAAISWSGTSTYYADSVKGRFTISRDIAKNTVYLQMNSLKPEDTAVYYCAARTYYVPYYYWGQGTQVTVSS”, the “polyreactivity (PSR sort gate)” value was “high polyreactivity”.
Consider “QVQLVESGGGLVQAGGSLRLSCAPSGSTFAYYAMGWYRQAPGKEREFVAAISTRGGSTYYADSVKGRFTISRDNAKNTVYFQMNSLKPEDTAVYYCAAGYFIYSWRIRFDYLGQGTQVTVSS”, for which the “polyreactivity (PSR sort gate)” value is recorded as “high polyreactivity”.
Consider “QVQLVESGGGLVQAGGSLRLSCAPSGSTFDIYAMGWYRQAPGKERELVARISSGGGRTYYADSVKGRFTISRDNAKNTVYLQMNSLKPEDTAVYYCARDNEPDYYSYPYDYWGQGTQVTVSS”, for which the “polyreactivity (PSR sort gate)” value is listed as “low polyreactivity”.
On to “QVQLVESGGGLVQAGGSLRLSCAPSGSTFNFNAMGWYRQAPGKERELVAAISKSGTRTYYADSVKGRFTISRDNAKNTVYLQMNSLKPEDTAVYYCAAPAISSYDHGYWGQGTQVTVSS”, for which the “polyreactivity (PSR sort gate)” value is recorded as “high polyreactivity”.
Regarding “QVQLVESGGGLVQAGGSLRLSCAPSGSTFRLYAMGWYRQAPGKERELVAVISGSGGNTYDADSVKGRFTISRDNAKNTVELQMNSLKPEDTAVDYCAAYSYRDRDDYWGQGTQGTVSS”, the “polyreactivity (PSR sort gate)” value is on record as “high polyreactivity”.
In the case of “QVQLVESGGGLVQAGGSLRLSCAPSGYIFDIYAMVWYRQAPGKERELVAGITRNGGSTYYADSVKGRFTISRDNAKNTVYLQMNSLKPEDTAVYYCAAGWITRSLYHKYYSWGQGTQVTVSS”, the “polyreactivity (PSR sort gate)” value is “high polyreactivity”.
On to “QVQLVESGGGLVQAGGSLRLSCAPSRYIFYPYAMGWYRQAPGKEREFVATISYRGGSTYYADSVKGRFTISRDNAKNTVYLQMNSLKPEDTAVYYCAAREPWYYGYGDYWGHGTQVTVSS”, for which the “polyreactivity (PSR sort gate)” value is reported as “high polyreactivity”.

The values above are taken from the nanobody polyreactivity screen of Harvey et al. (2022).
